Test results as given in article PMC8059062.

How the values were obtained:
Experiment in all cases: co-purification after bacterial coexpression, molar ratio by rpHPLC; (Ca2+)4-CaM copurified with His-GST-tagged FGF NTD fragments; complexes separated on a C-18 column, ratio from peak areas at 220 nm
[1] = target: FGF13ANTD (FGF13A N-terminal domain, aa 1-66) (human) (UniProt Q92913)
[2] = target: FGF11ANTD (FGF11A N-terminal domain, aa 1-68) (human) (UniProt Q92914)
[3] = target: FGF12ANTD (FGF12A N-terminal domain, aa 1-70) (human) (UniProt P61328)
FGF12ANTD (FGF12A N-terminal domain, aa 1-70) (human), sequence (P61328 other isoform, or with tags, fused parts or gaps): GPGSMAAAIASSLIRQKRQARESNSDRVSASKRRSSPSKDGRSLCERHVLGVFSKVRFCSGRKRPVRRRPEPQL

[4] = target: FGF14ANTD (FGF14A N-terminal domain, aa 1-68) (human) (UniProt Q92915)
FGF14ANTD (FGF14A N-terminal domain, aa 1-68) (human), sequence (Q92915 other isoform, or with tags, fused parts or gaps): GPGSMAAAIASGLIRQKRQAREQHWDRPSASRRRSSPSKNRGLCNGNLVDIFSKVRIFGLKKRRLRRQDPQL

FGF11ANTD (FGF11A N-terminal domain, aa 1-68) (human), sequence (Q92914 other isoform, or with tags, fused parts or gaps): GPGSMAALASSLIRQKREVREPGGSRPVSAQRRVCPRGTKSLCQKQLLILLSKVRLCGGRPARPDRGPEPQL
FGF13ANTD (FGF13A N-terminal domain, aa 1-66) (human), sequence (Q92913 other isoform, or with tags, fused parts or gaps): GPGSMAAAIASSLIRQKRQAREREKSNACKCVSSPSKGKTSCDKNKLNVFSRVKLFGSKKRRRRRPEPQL

- stoichiometry N ((Ca2+)4-CaM per FGF NTD) [1]: 1
- stoichiometry N ((Ca2+)4-CaM per FGF NTD) [2]: 1
- stoichiometry N ((Ca2+)4-CaM per FGF NTD) [3]: 1
- stoichiometry N ((Ca2+)4-CaM per FGF NTD) [4]: 1
Substance: calmodulin, wild type, full-length (aa 1-148) (from UniProt P0DP23 1-149) (natural protein)
